Experimental data from publication PMC10843048.

How the values were obtained:
His+Ala+TIMP2 (human) = His+Ala+TIMP2 (human) (UniProt P16035); assay: SPR
[1] = molecular target: His+Ala+TIMP2Q186 (human); assay: SPR

Sequence of UniProt P16035 (P16035 26-220): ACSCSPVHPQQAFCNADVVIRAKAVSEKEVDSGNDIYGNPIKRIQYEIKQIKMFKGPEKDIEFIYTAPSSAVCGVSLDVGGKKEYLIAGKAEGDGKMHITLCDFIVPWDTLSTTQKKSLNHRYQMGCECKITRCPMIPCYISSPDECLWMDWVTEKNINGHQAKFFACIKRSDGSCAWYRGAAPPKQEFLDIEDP

Substance: Recombinant C-domain of MMP2 (C-MMP2) (domain or fragment)
- Kd (His+Ala+TIMP2 (human)): 0.00076 µM
- Kd [1]: 1.9 µM
